Test results taken from publication PMC8794893 (Proceedings of the National Academy of Sciences of the …, 2022).

Key:
[1] = molecular target: T1, Archaeoglobus fulgidus DsrAB dissimilatory sulfite reductase (Archaeoglobus fulgidus VC-16 …, UniProt Q59109 1-418; Q59110 1-366); test: MST
[2] = molecular target: T1, Archaeoglobus fulgidus DsrAB …; test: SPR

T1 sequence (Q59109 whole entry, chain 1 of 2): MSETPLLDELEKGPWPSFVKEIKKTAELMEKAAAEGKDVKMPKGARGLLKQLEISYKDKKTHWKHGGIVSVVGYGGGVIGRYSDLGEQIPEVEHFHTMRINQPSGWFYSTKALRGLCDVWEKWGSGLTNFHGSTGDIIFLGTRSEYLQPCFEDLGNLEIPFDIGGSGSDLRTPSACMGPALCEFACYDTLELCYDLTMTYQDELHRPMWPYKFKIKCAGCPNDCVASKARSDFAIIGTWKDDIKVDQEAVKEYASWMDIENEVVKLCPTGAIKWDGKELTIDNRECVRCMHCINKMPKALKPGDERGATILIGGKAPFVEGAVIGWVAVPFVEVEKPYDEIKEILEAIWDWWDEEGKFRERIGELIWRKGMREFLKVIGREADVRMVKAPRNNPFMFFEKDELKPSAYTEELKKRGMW
T1 sequence (Q59110 whole entry, chain 2 of 2): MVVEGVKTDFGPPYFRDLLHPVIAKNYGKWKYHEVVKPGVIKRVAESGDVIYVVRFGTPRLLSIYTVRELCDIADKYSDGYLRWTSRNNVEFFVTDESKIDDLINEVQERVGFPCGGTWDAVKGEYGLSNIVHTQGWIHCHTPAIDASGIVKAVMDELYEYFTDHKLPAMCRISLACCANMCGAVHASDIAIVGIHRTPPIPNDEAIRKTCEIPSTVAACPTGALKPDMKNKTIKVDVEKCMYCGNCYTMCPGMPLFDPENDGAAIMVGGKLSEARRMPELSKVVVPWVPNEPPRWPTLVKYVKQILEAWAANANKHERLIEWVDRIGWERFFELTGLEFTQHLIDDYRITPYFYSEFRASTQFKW

Kd [1]: 350 ± 60 nM | Kd [2]: 540 ± 20 nM
B1: recombinant Archaeoglobus fulgidus DsrD with C-terminal His-tag (natural protein, Archaeoglobus fulgidus VC-16, UniProt P70742 1-77, looked up)
chain: MADYTEEDKQKVLAQLSKKTWKIPELAKILKMDKKVVKKIVQDLINEGVAGYWSSGSTTYVATKEYIEELEKKRAEG
modifications: RED-NHS dye on amines (Monolith NT Protein Labeling Kit RED-NHS second generation), in the MST experiment only
